# Substitutions are numbered along the chain they refer to.
# B1: GOMP001_bsAb_031 (bispecific antibody, human IgG1, kappa, L234A L235A)
# heavy 1: QVQLVQSGAEVKKPGASVKVSCKASGYTFTSHWMHWVRKAPGQGLEWIGEFNPSNGRTNYNEEFKSKATMTVDTSTNTAYMELSSLRSEDTAVYYCASRDYDYDGRYFDYWGQGTLVTVSSASTKGPSVFPLAPSSKSTSGGTAALGCLVADYFPEPVTVSWNSGALTSGVHTFPAVLQSSGLYSLSSVVTVPSSSLGTQTYICNVNHKPSNTKVDEKVEPKSCDKTHTCPPCPAPEAAGGPSVFLFPPKPKDTLMISRTPEVTCVVVDVSHEDPEVKFNWYVDGVEVHNAKTKPREEQYNSTYRVVSVLTVLHQDWLNGKEYKCKVSNKALPAPIEKTISKAKGQPREPQVYTLPPSREEMTDNQVSLTCLVKGFYPSDIAVEWESNGQPENNYKTTPPVLMSDGSFFLASKLTVDKSRWQQGNVFSCSVMHEALHNHYTQKSLSLSPG
# light 1: RIQMTQSPSSLSASVGDRVTITCSASSSVTYMYWYQDKPGKAPKLLIYDTSNLASGVPSRFSGSGSGTDYTFTISSLQPEDIATYYCQQWSSHIFTFGQGTKVEIKRTVAAPSVFIFPPSDKQLKSGTARVVCLLNNFYPREAKVQWKVDNALQSGNSQESVTEQDSKDSTYSLSSTLTLSKADYEKHKVYACEVTHQGLSSPVTKSFNRGEC
# heavy 2: QGQLVESGGGVVQPGRSLRLSCAASGFTFRGFGMHWVRYAPGKGLEWVAIIYYDGKNKYYADRVKGRFTISRDNSKNTLYLQMNSLRAEDTAVYYCAKGGGYNWFDPWGRGTLVTVSSASTKGPSVFPLAPSSKSTSGGTAALGCLVKDYFPEPVTVSWNSGALTSGVHTFPAVLQSSGLYSLSSVVTVPSSSLGTQTYICNVNHKPSNTKVDKKVEPKSCDKTHTCPPCPAPEAAGGPSVFLFPPKPKDTLMISRTPEVTCVVVDVSHEDPEVKFNWYVDGVEVHNAKTKPREEQYNSTYRVVSVLTVLHQDWLNGKEYKCKVSNKALPAPIEKTISKAKGQPRRPRVYTLPPSREEMTKNQVSLVCLVKGFYPSDIAVEWESNGQPENNYKTTPPVLDSDGSFFLYSVLTVDKSRWQQGNVFSCSVMHEALHNHYTQKSLSLSPG
# light 2: DIQMTQSPSSLSASVGDRVTITCRASQSISTYLNWYQRKPGDAPKLLIYSASSLQSGVPSRFSGSGSGTDFTLTISNLQPEDFAIYYCQRSYSPPFTFGPGTKLDIRRTVAAPSVFIFPPSDEQLKSGTASVVCLLNNFYPREAKVQWKVDNALQSGNSQESVTEQDSKDSTYSLSSTLTLSKADYEKHKVYACEVTHQGLSSPVTKSFNRGEC
# B2: GOMP001_bsAb_039 (bispecific antibody, human IgG1, kappa, L234A L235A)
# heavy 1: B1 heavy 1
# light 1: B1 light 1
# heavy 2: EVQLVESGGGLVKTGGSHRLSCVASGFSFKKAWMNWVRYAPGKGLEWVGRIKRNSDGGTTDYAARVKGRFILSRDDSKNTLYLQMNSLKTEDTAVYYCTTLDSSSWYVGYYYMDVWGRGTTVTVSSASTKGPSVFPLAPSSKSTSGGTAALGCLVKDYFPEPVTVSWNSGALTSGVHTFPAVLQSSGLYSLSSVVTVPSSSLGTQTYICNVNHKPSNTKVDKKVEPKSCDKTHTCPPCPAPEAAGGPSVFLFPPKPKDTLMISRTPEVTCVVVDVSHEDPEVKFNWYVDGVEVHNAKTKPREEQYNSTYRVVSVLTVLHQDWLNGKEYKCKVSNKALPAPIEKTISKAKGQPRRPRVYTLPPSREEMTKNQVSLVCLVKGFYPSDIAVEWESNGQPENNYKTTPPVLDSDGSFFLYSVLTVDKSRWQQGNVFSCSVMHEALHNHYTQKSLSLSPG
# light 2: DIQMTQSPSSVSASVGDRVTITCRASQDINNWLAWYQRKPGDAPKILIYTASNLQSGVPSRFSGSGSGTDFTLTISSLQPEDFATYFCQQAHSLPITFGQGTRLEIKRTVAAPSVFIFPPSDEQLKSGTASVVCLLNNFYPREAKVQWKVDNALQSGNSQESVTEQDSKDSTYSLSSTLTLSKADYEKHKVYACEVTHQGLSSPVTKSFNRGEC
# B3: GOMP001_bsAb_038 (bispecific antibody, human IgG1, kappa, L234A L235A)
# heavy 1: EVQLVESGGVLVKTGGSLRLSCVASGFSFKKAWMNWVRKAPGKGLEWVGRIKRNSDGGAADYAAEVKDRFTLSRDDSKNTLYLQMNSLKTEDTAVYYCTTLDSSSWYVGYYYMDVWGKGTTVTVSSASTKGPSVFPLAPSSKSTSGGTAALGCLVADYFPEPVTVSWNSGALTSGVHTFPAVLQSSGLYSLSSVVTVPSSSLGTQTYICNVNHKPSNTKVDEKVEPKSCDKTHTCPPCPAPEAAGGPSVFLFPPKPKDTLMISRTPEVTCVVVDVSHEDPEVKFNWYVDGVEVHNAKTKPREEQYNSTYRVVSVLTVLHQDWLNGKEYKCKVSNKALPAPIEKTISKAKGQPREPQVYTLPPSREEMTDNQVSLTCLVKGFYPSDIAVEWESNGQPENNYKTTPPVLMSDGSFFLASKLTVDKSRWQQGNVFSCSVMHEALHNHYTQKSLSLSPG
# light 1: RIHMTQSPSSVSASLGDRVTFTCRASQNINNWLAWYQDKPGKAPKLLIYTASSLQSGVPSRFSGSGSGTDFTLTISSLQPDDFATYYCQQAHSLPITFGQGTRLGIKRTVAAPSVFIFPPSDKQLKSGTARVVCLLNNFYPREAKVQWKVDNALQSGNSQESVTEQDSKDSTYSLSSTLTLSKADYEKHKVYACEVTHQGLSSPVTKSFNRGEC
# heavy 2: QVQLVQSGAEVKKPGASVKVSCKASGYTFTSHWMHWVRYAPGQGLEWIGEFNPSNGRTNYNEKFKSKATMTVDTSTNTAYMELSSLRSEDTAVYYCASRDYDYDGRYFDYWGRGTLVTVSSASTKGPSVFPLAPSSKSTSGGTAALGCLVKDYFPEPVTVSWNSGALTSGVHTFPAVLQSSGLYSLSSVVTVPSSSLGTQTYICNVNHKPSNTKVDKKVEPKSCDKTHTCPPCPAPEAAGGPSVFLFPPKPKDTLMISRTPEVTCVVVDVSHEDPEVKFNWYVDGVEVHNAKTKPREEQYNSTYRVVSVLTVLHQDWLNGKEYKCKVSNKALPAPIEKTISKAKGQPRRPRVYTLPPSREEMTKNQVSLVCLVKGFYPSDIAVEWESNGQPENNYKTTPPVLDSDGSFFLYSVLTVDKSRWQQGNVFSCSVMHEALHNHYTQKSLSLSPG
# light 2: B1 light 1 with R1D, D37R, K41D, K122E, R130S
# B4: GOMP001_bsAb_032 (bispecific antibody, human IgG1, kappa, L234A L235A)
# heavy 1: QGQLVESGGGVVQPGRSLRLSCAASGFTFRGFGMHWVRKAPGKGLEWVAIIYYDGKNKYYADEVKGRFTISRDNSKNTLYLQMNSLRAEDTAVYYCAKGGGYNWFDPWGQGTLVTVSSASTKGPSVFPLAPSSKSTSGGTAALGCLVADYFPEPVTVSWNSGALTSGVHTFPAVLQSSGLYSLSSVVTVPSSSLGTQTYICNVNHKPSNTKVDEKVEPKSCDKTHTCPPCPAPEAAGGPSVFLFPPKPKDTLMISRTPEVTCVVVDVSHEDPEVKFNWYVDGVEVHNAKTKPREEQYNSTYRVVSVLTVLHQDWLNGKEYKCKVSNKALPAPIEKTISKAKGQPREPQVYTLPPSREEMTDNQVSLTCLVKGFYPSDIAVEWESNGQPENNYKTTPPVLMSDGSFFLASKLTVDKSRWQQGNVFSCSVMHEALHNHYTQKSLSLSPG
# light 1: B1 light 2 with D1R, R38D, D42K, E123K, S131R
# heavy 2: B3 heavy 2
# light 2: B1 light 1 with R1D, D37R, K41D, K122E, R130S
# B5: GOMP001_bsAb_037 (bispecific antibody, human IgG1, kappa, L234A L235A)
# heavy 1: B1 heavy 1
# light 1: B1 light 1
# heavy 2: B2 heavy 2 with G10V, H18L, T59A, T60A, G68D, I71T
# light 2: B3 light 1 with R1D, D38R, K42D, K123E, R131S
# Biological target: EGFR on HeLa cells (UniProt P00533 25-1210, limits assumed)
# Assay: cell-based or functional assay
Binder,Max killing %,X… HeLa EC50
B1,68.8%,
B2,81.1%,0.374 nM
B3,93.6%,0.0331 nM
B4,98.1%,0.061 nM
B5,83.6%,0.174 nM

# From US20230295310A1 (ABCELLERA BIOLOGICS, published 2023)
